Assay results from paper PMC6916501 (The Journal of Biological Chemistry, 2019).

B1: clone 7 phage clone (scFv displayed on M13 phage) (scFv, V domains shown)
VH: EVQLVESGGGLVQPGGSLRLSCAASGFNVWSYGIHWVRQAPGKGLEWVAGVTPDGSYTYYADSVKGRFTISADTSKNTAYLQMNSLRAEDTAVYYCSRSYGWAMDYWGQGTLVTVSS
VL: DIQMTQSPSSLSASVGDRVTITCRASQDVNTAVAWYQQKPGKAPKLLIYSASFLYSGVPSRFSGSRSGTDFTLTISSLQPEDFATYYCQQQYAYTPITFGQGTKVEIK
notes: scFv from the second library on the humanized 4D5 framework (CDRs L2, L3, H1, H2, H3 varied); also called cl; source: phage display, amplified in SS320 E. coli with M13K07 helper phage
B2: clone 7 scFv with C-terminal FLAG tag (scFv, V domains shown)
VH: EVQLVESGGGLVQPGGSLRLSCAASGFNVWSYGIHWVRQAPGKGLEWVAGVTPDGSYTYYADSVKGRFTISADTSKNTAYLQMNSLRAEDTAVYYCSRSYGWAMDYWGQGTLVTVSS
VL: DIQMTQSPSSLSASVGDRVTITCRASQDVNTAVAWYQQKPGKAPKLLIYSASFLYSGVPSRFSGSRSGTDFTLTISSLQPEDFATYYCQQQYAYTPITFGQGTKVEIK
notes: as the scFv of m22; also called cl; source: E. coli, produced by AxioMx
B3: E10 phage clone (scFv displayed on M13 phage) (scFv, V domains shown)
VH: EVQLVESGGGLVQPGGSLRLSCAASGFNINNTYIHWVRQAPGKGLEWVASIYPTDGYTRYADSVKGRFTISADTSKNTAYLQMNSLRAEDTAVYYCSRTYYSYYSAMDVWGQGTLVTVSS
VL: DIQMTQSPSSLSASVGDRVTITCRASQDVNTAVAWYQQKPGKAPKLLIYSASFLYSGVPSRFSGSRSGTDFTLTISSLQPEDFATYYCQQSYYSPPTFGQGTKVEIK
notes: scFv from the first library on the humanized 4D5 framework (CDRs L3, H1, H2, H3 varied); source: phage display, amplified in SS320 E. coli with M13K07 helper phage
B4: E10 scFv with C-terminal FLAG tag (scFv, V domains shown)
VH: EVQLVESGGGLVQPGGSLRLSCAASGFNINNTYIHWVRQAPGKGLEWVASIYPTDGYTRYADSVKGRFTISADTSKNTAYLQMNSLRAEDTAVYYCSRTYYSYYSAMDVWGQGTLVTVSS
VL: DIQMTQSPSSLSASVGDRVTITCRASQDVNTAVAWYQQKPGKAPKLLIYSASFLYSGVPSRFSGSRSGTDFTLTISSLQPEDFATYYCQQSYYSPPTFGQGTKVEIK
notes: as the scFv of m19; source: E. coli, produced by AxioMx

Tests used:
[1] = target: T1, WT β-catenin_(41–49) peptide on HLA-A3 of T2A3 cells (Homo sapiens, HLA-A*03:01, UniProt P04439;P61769); assay: flow cytometry on cells; T2A3 cells pulsed with peptide and β2-microglobulin, stained with ~1 × 10^10 phage for 1 h on ice; anti-M13 and PE anti-rabbit; settings: partners not purified
T1 construct: HLA-A3 stably transfected in T2A3 cells; human β2-microglobulin (ProSpec) added at pulsing; β-catenin amino acids 41-49; also called WT peptide-pulsed T2A3 cells; copies: + +

[2] = target: T1, WT β-catenin_(41–49) peptide on HLA-A3 …; assay: flow cytometry on cells; T2A3 cells pulsed with peptide and β2-microglobulin, stained with 1 μg scFv in 100 μl for 1 h on ice; PE anti-DYKDDDDK; settings: one partner purified

| Binder | binding result [1] | binding result [2] |
| --- | --- | --- |
| B1 | no binding |  |
| B2 |  | no binding |
| B3 | no binding |  |
| B4 |  | no binding |
